In the DeepSol protein solubility set:

Assay: soluble on expression in E. coli; label from the status in PepcDB or PDB records

Sequence	soluble on expression in E. coli
MAHHHHHHMNDCISTDKVDLDKKQIKKFLKQINISQLTKMIQFIDNKLLSDWDFNCLTYFDESEYPFFDINLSLICTIDHNIPINIIINFLCFVEKQYNNVPYHNTIHATMVTQKFFCLAKKLGIYDDLEYKIKLVMFISGICHDIGHPGYNNLFFVNSLHPLSIIYNDISVLENYHASITFKILQLNQCNILKNFSEKDFRMMRSYIIELILSTDMKHHFEIISKFRIRRENEDFDYIKNSDDLLILTKMIIKSADISHGSVSWSEHYCWCQRVLSEFYTQGDEELKNKMPLSPLCDRTKHNEVCKSQITFLKFVVMPLFEELSHIDNNKFIKSFCLKRLNSNCIMWDTLMKEEKTIEVYDPAAVKLKDKKKKKVDKKKKSYIDLTLFFIKNV	not soluble
MAHHHHHHMNDERVLFLTSSTCITICENQIGIDVLLKTDILHNAVILCESANPDLAFEALSIISKIAYAANHQQICILISCNVIKALKKILNNMKIKPGARARACNALGNIGCETASEVELLIKNDVFPLLVDIFQTDNDFNTKIEAAYAVCACLSKANQKQVGYIISCTATTNRLGQNICMQLIADMLELVSESDPMNNGSVKLCKSILRGLENILDKGDDETRDLSLWENPYVFMFKEVQGDIKLFQMQFFPEYYVVNKTYDILAKYFSLTSTWNNRK	not soluble
MAHHHHHHMNKVVIISIFFFFFFQDHNNKSINSYNKINSSSTYTHSRILKQLEFITLEEKTVNALQEMLDSVEEDPSEKKCNRLLAKLKIRNEYHKHRKPHNYYARKNKKKEQKRQHLKKNKGKLNRLQQLEEKLFTHADLLRSAIFERTSRVPDGIFYT	not soluble
MAHHHHHHMNREQIARRIDLVGPSTGAIVGVATWCALHGAEADAILNYVAEKMKHKDTTDAQRASLVYVIHELLLSCATRGVSENAKRSILKAVSLTLPSAVRDTLRQRASDHTAFLIALQKATEWWGTLNLFPAAWLAKLQCTVQDGQESAGHRTTVPSALMQVANLLQRYQHAKEQWVQNRNIKAEEGRTGSGVASGQDTAAPLAGGGAGASSAVVDDAARRCLIALRKAVESRFERNAAFLAWCEAERAELEGRATTSSADSGVVKMAHGTSPHVPTHSGSGSSYSVKEEGGHSGGPSGEPNDDEDVLGSFFS	soluble
MAHHHHHHMNRHNKFYAEVADELEGEDYYDDDDDDYNNDEEYEEEGEYDEAAYETTASAASPEPVHMPKSTTQATAPAAAAVRVNPYTTISPQVDDDYELLDVLLPQLHALWKTNAPTMLPLSEGEAVTALRASNYDVEPAFLQLKEKRDEERSKRGGGVLRVAAAAGPAKRASTPPTVEPPEPGGEAASDNEGNSASPSASSGRTTITLRGWKGASQRRTKQMLEMEPDKEKPDCTFVIAGHVDAGKSTTLGHLLLLLGRVSIQDVERNEKADRTHHKDSFKYAWLLDQCEEERRRGVTIDSGSFCFETEHRRVHILDAPGHKDFVLNMISSATQADAALLVVTATNSEFETGLHHGTKSHLLVLKTLGVGSIVVAVNKMDAVAYSQERYDYVVRELQLLLKQTRIPEEAIIGFCPISGMTGVNITQRGAKETPWYHDLSLIEMIDRCPLESRLVNSPLRLSLQDVQGTTLYAKVESGRLFTGDMVHFVPSEVRVTIKSIQKPTVAGPVLVAFAGETVEISTNSSVTGLYPGCVGCEPNLLIRSSTDFEAHIQTFRTLTKAILPGASFTIIVHALTVRVHVAALISKMDSKTGNWSKGMVKCVPPAAQAMMLFRAESPVALEPATECRALGRFVLQQDGETVAGGLVTRVVDKA	not soluble
MAHHHHHHMNVRKSILNYLILHSSIVRRNHNKSYQKECRQSGSLNWMEKNRKMKSVRPNYFVCIPLSGNKGLVEELIKVQNHVASKFEMLKECAIERNKFHISLLILHVKKSQMVASKEAFREAIEEIKKLNHQAISFDTLETFRNDVLYAGLKEDSRKYVVNMIALLRDAFTKRDIHIFSNHKGKEEAREKTRPSGAIDKGIGNRTDKGAAVPSTYQCSEKEQITPHVTIMKNSYLRKIYANRKPQIFADYYADFNLSKLQTERVVPNKIQFLEMDTDSATSYYRVIDECGLP	not soluble
MAHHHHHHMPCRKIIIDTDCGGDDAIGIMTALADPNTDVIAMTAVWGNVNVNQGMENIGKLLDVFERDIPFYKGAEAPLVSDPETVQWGGFGKDGFGDADFPPSARVLVQSKTHAALAITELLRAAKPDEDAVYQLVCLGPLTNIALAMRLDPEVFHVLGSETEPAITIMGGASEAKGNSNLTSEFNMHCDPEAAYIVFNQRSMRPVRVVSWEVTVDCSMTWTFFDKWIGRQENGKKQQNRFQVFIEKVFQRLETFTRPLPDGTKANTGDAEATQDNTCVIPDAVAVVAALYPESILDRFITYCTVELHGRETRGQTCLDWYGTKQSMAKRGRWCNCELITRVDNARFLEAMNGILEYNV	not soluble
MAHHHHHHMPENDEHVVVQACSVRVALPASTQPCGVEDAVQHCLHAARAIVQINLVRGTPRVALQLLACRTDACGEQHTASQVLDESPRRLQYALLLRGFEQRGGPVNRLDHTSLACAMCVPNYFSPHHFGAAAVPFFRTYHVTEALAKRRYADAAVMMACLEVETVAEASTEVPPWLARALQLLCRGEDREGVWQAWWIHEVPAATQRRMVCAKSDLVWNVVASHRLQELVAATGGCRDVLLAAAPKPGDFVFQLEEAEDSGATSAALAPVALSAPVTAVYSQAQAARYSVHDIALPLVLDASSEFEGCESLAVIEAQLGFTHDRRRHLSLHPSQRPCQSHTSLPAVAQTNETVFRPLLVEATGYPRATRPWCRSFPEPSVGPAFDRPKAALESNATVFALATDWDLASQTAVARDYAAKSRGPRACVWPLSKRGRALTDRLPAGLMTVASADGSSLLGGASTTNYHGSRCLAIHCTLPARVSLANFVSELAAVEDLRDSQA	not soluble
MAHHHHHHMPETTHVTNDAAVPQKHIVEKPHLMDLFRSSASFAKIIAYLQGCSDSVNGTPRSARMVQKASELHPTVRFFVETFFPHLHKIVEEVPLQDMKKQRFGNRAFRVFHERLEADVGGLMQQLVLTLPARSGERSEEEQRCLAVELAEYIKDSFGNSTRIDYGTGHELHFFVVIMICLEECGDAGGTLQAEPTTIVSLNFPQPAPVLVDKRDRVCRLRQGMVFDVFGAYLTFMRRLQKHYHLEPAGSHGVWGLDDYHHLPFIFGAAQLIGKEVPHKTDDSGNGKGYGAILPKHVCEENAVRLHADEYFYFAQVAWVRENKTGPFFEHSSMLYNISGVESWQKIYTGMVKMYAAEVLSKFNVVQHLLFGTHLPWPPDV	soluble
MAHHHHHHMPIIESDLLSLAYKAALSALLSEEIYNFGKFLNERHFTERLADSVQHAWILEWLRLCNDGKVEEFEQYAVAHKAEMAASPILSESFPSITKKVRLMALLHLVFYTPFNERTFTFDVIARRCAVDEERVEPLLLAALAQGIIMGKIDGLTQEVHITWVEPRVLSLQEVKELAVHVSRWKEKTLGLMQCMKEAAQETHN	not soluble
MAHHHHHHMPKSSPPDEHKVLIKKLTHACASYDSASRKYLTAVKALDSSLEAVAIAIRELSQGEESEDAVTRVDRFCTSVDRHMAGSSAGASFGHNKSGRLSDSAAFNGAEYPFAAYMSDFTREVSSAVDELKEILKKIEKSRSKHDDLVAKYNKKRSEVDTMEMKLAKKNQGIATNEKYSHKLSDRDALKVQVDTGERELRAEFMELLQRRTRILLQVVHGMQTHSSKYYSHLSKAMQA	soluble
MAHHHHHHMPPLHSRATRQLVKERSKIEGPRSLHRGIHYQENEAHASSYMQNAKKKRADHRDLLVHHQRINEDLQDIYTRTAALHSDNMTMEERIEESWKKYERIGGKRPANVRTHGQDAVLCANQTAVPYAERLAQVSQQKKELRERGAWERLTHGEAVDYSKGSALHAAKDKRVQMFQRRQLRRAHLLRRVGDPTPLKQSGTYDMNSGTLRVFNKTIRNVQREVAHDARIAEVRKRRKNSRSQWDLNESGNVNRPDQEILRYSRDWELGPQRKARGGGGGGGRGGRKRGRDEL	not soluble
MAHHHHHHMPQVDLVKLLQICVNGALAAQQYILLDLIQLRSLEVSRRDVCIADLDQQEIARLRARLKAAVSVDVKGKLEYKEGGSVDDLVTTADVVTQGLMERLLAEAFPDTPFTIIGEEEATTTDAIKIQVERCVEAFRDVNAVAPLQKELEAHASSDSRHVSASTVEELRARVGVFIDPIDATSCFVDGTWGAPMTLVGITVDGVPVAGVSNRFFYSTVDDLTSGGNAGCTGLSYVWNDPSAGPFIVHEGRLATPLWSLGRKTTSNLAMLRVIRSGTTSNKRFEQLLARLQPVEPRSARGAGNKLMLLVVSMLAASDGAAAAACDVFLAPPNSISKWDTCAAHAFLLALGGDMRTLRGELIRYPLRGTTNLKTLPDGVVGLTRWSMTEGLRRLGWQ	not soluble
MAHHHHHHMPRSIRVRHGDPDVAEGALTIEVPSSPDADNKAVGDARTPVASLGASSAFFTTYSTVSGDVAHPCANIASGAAPSDEVSPLTSALFMSVDSTPLASSCATKTAASLVNVRSFNSSATVVSVELPNLQSEHAAMTATSCFATRSRDTEAPAAAAAASATNPPPLRHPLGSAPIEGGGGQTQLAGEADTPVQDRTAAPSSSPLMAKASVSASFSGDSSKRCSHTVQSGLSDDLQLTQTTCYLPLLGSAGSREVQRSGDDIDARWVAERESVPAAEPARTTVGNDSFPAEGSEGAMVATTQSASTDVRAAACTVPASNISNTVAATATDVAAPLCPKFEVLATVPAPLVGRVPIRIHWCCAAHWRAVQRTERGAQWAVDGAPADVYCVPAHRNAKRERRSLSASCVEAKSESERGGRSFSGTGENTAWLRDAAGEVKPQHWEVRALSSAVGAPGSTLYDDSNYDAEHEKHGSLKTRSGLPHVHSHSCTDMLTCEFCGHAVERYHSEDCDDEASEASTSMTQTGRACSAPPGRFQDCHGCASAEARSLSSSKIVAFRSNQPSILTPQLLLSSSESAETTVDLDMSGAISSVDVPSWSDSAREEALMAAVALLQ	not soluble
MAHHHHHHMPSSFAAQQQGSCNPHQNPVRSHKGGYLRCPFNISSSYAELAERRVHEDLACGRSRAAVADKDGVKAFPSTGPQVDSDGIDGDFAGRPWSRAGVGANRLSGKEKRTQQEQAEHIYGRGTLAEDDGAVAATGAVSVTSDLLQENMFAVDVRERAALQKVVPRAVREQVKRRKLEDVKKERLSPGNHCRHGCAPLHTDRAAGEEAGEDDDVESRSEDHMAGPPRERTRFSSPAAGSSRVGAPPLPHSAGSKDHPSGGSSSANVGAERSPRSGPSDASAQRPPLREPTPAPVSAKSNCPKNRMQMLDGLRASALMNKKGRR	soluble
MAHHHHHHMPYIASIDQGTTSSRCIIFDEKFTILSAHQLFHKQITPRPGWLEHDPEEIYSNCCLCLAEALKKLRSKDPKFEKVSAIGITNQRETGVAWDRKTGKPLCNAIVWSDARTYEVSNRIAKECGGGDRNFAANITGLPVSTYFTAFKFRWMLENVPAVAAARKSGSLLLGTIETWLLWKLSEGKVFLTDVSNASRTFLMNLRTQQWCDKLCQELDIPLAALPEIRSNSERYCDVVANDHGIRDALGVPTPVTGCIGDQQSALFGHIGLHKGDAKNTYGTGCFMLMNVGTEPQFSKHGLLGTIAYKLGTEPTKFALEGSVAGAGATVEWMRSNLGFFDHPMQMESIARKVGGTDGVVFVPAFGGLLAPYWDPTARGTLVGMTYKTNKSHIIRAALEAISMQVNAVMLAMKEDSGVEMNCLRVDGGLTRSRLLMEMQADILGVNLYVPHLTETTALGAALCAGLAVGVWKSVEEMQKTAKEHLSGETVNPITTDEQVRKARLEAWNAAVKLSRWAKL	soluble
MAHHHHHHMQDHMFAKSGVPANGAGLGQNYYTRDLITEVPTIIQIVPVSSEALATQRSPPKGTSDTFKISLDDVEPTAGWLSDRNNASLDICFMHSFGKCYGKIREKDPRTCHQIHVKRNVLDNLRKYYTNPQRNYFCRTMKANVTEKFAQVLSLLARRRIGLRYLEFRTEDIEVTAGSTEYEVQYRLWLVSDVEPQSRSRAQAANILTDNFISSSNLCWDFALTGRCCKGASCPDLHGHVAKALTKDRYVKAALAEMGKKDSLVPPTETTQPGKTPRVCQPSTSAPQQFPPPPPMPQQCASFIVSSPISPPYCFSSLPAASGMSAPSPNPTLAAFPLDMSSLQGTPCFLVDKGSDNVFRLITQSQFASFGNDAS	not soluble
